{
  "source": "patent US20160145343A1",
  "about": "(UNIVERSITY OF PITTSBURGH OF THE COMMONWEALTH SYSTEM OF …, published 2016)",
  "binders": {"B1": {"name": "M22 (antibody, human IgG1, kappa, V domains shown)", "VH": "EVQLVESGGGLVQPGGSLRLSCAASGFTVSSNYMSWVRQAPGKGLEWVSVIYSGGTTYYADSVKGRFTISRHNSKNTLYLQMNSLRAEDTAVYYCARDHDPDYGGYYMDVWGKGTTVTVSS", "VL": "DVVMTQSPLSLPVTLGQPASISCRSSQSLVYSDGNTYLNWFQQRPGQSPRRLIYQVSNRDSGVPDRFSGSGSGTDFTLKIGRVEAEDVGVYFCMQGTHWPWTFGQGTKVEIKR", "notes": "Human IgG"}, "B2": {"name": "M20 (antibody, human IgG1, kappa, V domains shown)", "VH": "EVQLVESGGGLVQPGGSLRLSCAASGFTFSSYWMHWVRQAPGKGLVWVSHINSDGSSTSYADSVKGRFTISRDNAKNTLYLQMNSLRAEDTAVYYCARELADWGQGTLVTVSS", "VL": "B1 VL", "notes": "Human IgG"}, "B3": {"name": "M21 (antibody, human IgG1, kappa, V domains shown)", "VH": "EVQLVESGGGLVQPGGSLRLSCAASGFTVSSNYMSWVRQAPGKGLEWVSVIYSGGSTYYADSVKGRFTISRDNSKNTLYLQMNSLRAEDTAVYYCARDQEHYFDGSGYYVDYWGQGTLVTVSS", "VL": "B1 VL", "notes": "Human IgG"}, "B4": {"name": "M3 (antibody, human IgG1, lambda, V domains shown)", "VH": "QLQLQESGPGLVKPSETLSLTCTVSGGSISSSSYYWGWIRQPPGKGLEWIGSIYYSGSTHYNPSLKSRVTISVDTSKNQFSLKLRSVTAADTAVYYCARGVVEVRGNHYYYYYMDVWGKGTTVTVSS", "VL": "QSVLTQPPSVSGAPGQRVTISCTGSSSNIGAGYDVHWYQQLPGTAPKLLIYGNSYRPSGVPDRFSGSKSGTSASLAITGLQAEDEADYYCQSYDSSLSGSGVFGGGTKLTVLG", "notes": "Human IgG"}, "B5": {"name": "M7 (antibody, human IgG1, kappa, V domains shown)", "VH": "EVQLVESGGGLVQPGGSLRLSCAASGFTVSSNYMSWVRQAPGKGLEWVSVIYSGGSTYYADSVKGRFTISRDNSKNTLYLQMNSLRAEDTAVYYCARGSTNTYYYDSSGHPWGQGTMVTVSS", "VL": "DIVMTQSPLSLPATPGEPASISCRSSQSLLHSNGYTYLDWYLQKPGQSPQVLIYLASNRASGVPDRFSGSGSGTNFTLKISRVEAEDVGLFYCMQALQTPQTFGQGTKLEIKR", "notes": "Human IgG"}, "B6": {"name": "M14 (antibody, human IgG1, kappa, V domains shown)", "VH": "QVQLVESGGGLVKPGGSLRLSCAASGFTFSDYYMSWIRQAPGKGLEWVSYISSSGTTKYYADSVKGRFTISRDNAKNSLYLQMNSLRAEDTAVYYCVRENLGYCSGGSCFYYYYMDVWGKGTTVTVSS", "VL": "not shown"}, "B7": {"name": "M16 (antibody, human IgG1, kappa, V domains shown)", "VH": "B6 VH", "VL": "not shown", "notes": "Human IgG"}, "B8": {"name": "M23 (antibody, human IgG1, kappa, V domains shown)", "VH": "B6 VH with L101I, S105T, S108N", "VL": "not shown"}},
  "note": "Where a chain is given by its changes, count along the chain named.",
  "data": [
    {"target": "T1, MUC1 on MUC1+ human cancer cell lines and tumor tissue (abnormal, e.g. hypoglycosylated, tumor MUC1) (human, UniProt P15941 24-1255)", "T1 construct": "the MUC1 of each cell line or tissue (number of repeats, glycoform) is not specified; The cell line or tissue is named under assay; also called MUC1 on HPAF, MCF-7, BT-20, SKBR-3, PANC-1, MS+MUC1 cells; MUC1 on colon and pancreatic tumor samples", "assay": "flow cytometry, SKBR-3 cells", "description": "(§1) The antibodies were further characterized for their surface binding to MUC1-expressing human cancer cell lines HPAF (pancreatic), MCF-7 (breast), BT-20 (breast), PANC-1 (pancreatic), and MS (breast) cell lines that express very low levels of MUC1 and was transfected with MUC1 cDNA (MS+MUC1). MCF-10A, a human nontransformed mammary epithelial cell line that expresses normal MUC1, was used as a predicted negative control for tumor MUC1 (hypoglycosylated MUC1)-specific staining Cells were grown attached to tissue culture plates, trypsinized, washed with PBS and 1% FBS and stained with each antibody for 30 minutes on ice. Cells were then washed 2 times with PBS and 1% FBS and stained with appropriate allophycocyanin (APC)-labeled secondary antibodies. Cells were washed again 2 times with PBS and 1% FBS and then analyzed by flow cytometry. Thirty-thousand events were collected for each sample and gated for viability by forward and side scatter. Live cells were then gated for APC+ staining as compared to an appropriate secondary antibody only control.", "units": {"percentage of APC+ stained cells": "%"}, "values": [
      {"binder": "B1", "percentage of APC+ stained cells": 1.34},
      {"binder": "B2", "percentage of APC+ stained cells": 1.91},
      {"binder": "B3", "percentage of APC+ stained cells": 0.99},
      {"binder": "B4", "percentage of APC+ stained cells": 5.71},
      {"binder": "B5", "percentage of APC+ stained cells": 1.65},
      {"binder": "B6", "percentage of APC+ stained cells": 22.3},
      {"binder": "B7", "percentage of APC+ stained cells": 2.68},
      {"binder": "B8", "percentage of APC+ stained cells": 18.6}
    ]},
    {"target": "T1, MUC1 on MUC1+ human cancer cell lines …", "assay": "immunohistochemistry, colon tissue microarray, benign samples", "description": "(§2) Secondary antibodies alone were used as negative controls. Following staining, the microarrays were analyzed using CELLPROFILER cell image analysis software (Broad Institute).", "values": [
      {"binder": "B6", "MUC1+ samples stained": "2 of 3 MUC1+ benign samples"},
      {"binder": "B8", "MUC1+ samples stained": "2 of 3 MUC1+ benign samples"}
    ]},
    {"target": "T1, MUC1 on MUC1+ human cancer cell lines …", "assay": "flow cytometry, BT20 cells", "description": "as §1", "units": {"percentage of APC+ stained cells": "%"}, "values": [
      {"binder": "B1", "percentage of APC+ stained cells": 3.39},
      {"binder": "B2", "percentage of APC+ stained cells": 9.86},
      {"binder": "B3", "percentage of APC+ stained cells": 4.06},
      {"binder": "B4", "percentage of APC+ stained cells": 14.8},
      {"binder": "B5", "percentage of APC+ stained cells": 12.2},
      {"binder": "B6", "percentage of APC+ stained cells": 22.9},
      {"binder": "B7", "percentage of APC+ stained cells": 5.17},
      {"binder": "B8", "percentage of APC+ stained cells": 23}
    ]},
    {"target": "T1, MUC1 on MUC1+ human cancer cell lines …", "assay": "immunohistochemistry, colon tissue microarray, malignant samples", "description": "as §2", "values": [
      {"binder": "B6", "MUC1+ samples stained": "56 of 114 MUC1+ malignant samples"},
      {"binder": "B8", "MUC1+ samples stained": "76 of 114 MUC1+ malignant samples"}
    ]},
    {"target": "T1, MUC1 on MUC1+ human cancer cell lines …", "assay": "flow cytometry, HPAF cells", "description": "as §1", "units": {"percentage of APC+ stained cells": "%"}, "values": [
      {"binder": "B1", "percentage of APC+ stained cells": 2.99},
      {"binder": "B2", "percentage of APC+ stained cells": 4.36},
      {"binder": "B3", "percentage of APC+ stained cells": 2.6},
      {"binder": "B4", "percentage of APC+ stained cells": 42.1},
      {"binder": "B5", "percentage of APC+ stained cells": 51.5},
      {"binder": "B6", "percentage of APC+ stained cells": 6.81},
      {"binder": "B7", "percentage of APC+ stained cells": 5.93},
      {"binder": "B8", "percentage of APC+ stained cells": 5.71}
    ]},
    {"target": "T1, MUC1 on MUC1+ human cancer cell lines …", "assay": "flow cytometry, PANC-1 cells", "description": "as §1", "units": {"percentage of APC+ stained cells": "%"}, "values": [
      {"binder": "B1", "percentage of APC+ stained cells": 0.7},
      {"binder": "B2", "percentage of APC+ stained cells": 0.39},
      {"binder": "B3", "percentage of APC+ stained cells": 0.75},
      {"binder": "B4", "percentage of APC+ stained cells": 1.55},
      {"binder": "B5", "percentage of APC+ stained cells": 0.41},
      {"binder": "B6", "percentage of APC+ stained cells": 55.2},
      {"binder": "B7", "percentage of APC+ stained cells": 0.76},
      {"binder": "B8", "percentage of APC+ stained cells": 45.1}
    ]},
    {"target": "T1, MUC1 on MUC1+ human cancer cell lines …", "assay": "flow cytometry, MS+MUC1 cells", "description": "as §1", "units": {"percentage of APC+ stained cells": "%"}, "values": [
      {"binder": "B1", "percentage of APC+ stained cells": 5.78},
      {"binder": "B2", "percentage of APC+ stained cells": 6.32},
      {"binder": "B3", "percentage of APC+ stained cells": 4.41},
      {"binder": "B4", "percentage of APC+ stained cells": 22},
      {"binder": "B5", "percentage of APC+ stained cells": 22.4},
      {"binder": "B6", "percentage of APC+ stained cells": 28.4},
      {"binder": "B7", "percentage of APC+ stained cells": 7.03},
      {"binder": "B8", "percentage of APC+ stained cells": 33.8}
    ]},
    {"target": "T1, MUC1 on MUC1+ human cancer cell lines …", "assay": "flow cytometry, MCF-7 cells", "description": "as §1", "units": {"percentage of APC+ stained cells": "%"}, "values": [
      {"binder": "B1", "percentage of APC+ stained cells": 5.68},
      {"binder": "B2", "percentage of APC+ stained cells": 29.2},
      {"binder": "B3", "percentage of APC+ stained cells": 5},
      {"binder": "B4", "percentage of APC+ stained cells": 79.6},
      {"binder": "B5", "percentage of APC+ stained cells": 83.5},
      {"binder": "B6", "percentage of APC+ stained cells": 20.8},
      {"binder": "B7", "percentage of APC+ stained cells": 18.3},
      {"binder": "B8", "percentage of APC+ stained cells": 16.1}
    ]}
  ]
}
